Test results from the supplement of paper PMC10567573.

B1: RTN1 (parent)
chain: VVAYLALAALSATISFRIYKSVLQ
B2: SNAP91 (parent)
chain: FAAPSPATTASPAKVDSSGVIDLF

Variants of: B1
Experiment: protein stability index of a GFP-peptide fusion (GPS, HEK-293T) (PSI 1-6); higher = more stable
Conditions: c terminus: a fixed tail appended
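Note: lentivirally expressed fusions sorted by FACS into six bins by GFP to DsRed ratio, PSI derived from sequencing read proportions per bin multiplied by bin number.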

| Variant | protein stability index |
| --- | --- |
| Q24R | 3.71 |
| Q24T | 2.08 |
| Q24Y | 3.94 |
| Q24G | 2.92 |
| Q24N | 3.38 |
| Q24V | 3.35 |
| Q24S | 2.03 |
| L10M | 3.33 |
| L10F | 2.31 |
| L10Y | 2.83 |
| L10G | 3.08 |
| L10H | 2.74 |
| L10K | 2.42 |
| L10Q | 2.41 |
| S11W | 2.55 |
| S11K | 2.4 |
| S11G | 2.02 |
| S11M | 2.45 |
| S11D | 3.61 |
| S11T | 2.81 |
| S11Y | 2.33 |
| S11F | 2.3 |
| S11P | 2.49 |
| S11V | 1.41 |
| S11R | 2.44 |

| Variant | protein stability index |
| --- | --- |
| T13C | 1.87 |
| T13M | 1.58 |
| T13Y | 1.86 |
| T13F | 2.43 |
| T13V | 2.39 |
| T13G | 1.32 |
| T13A | 1.2 |
| T13K | 2.77 |
| V22A | 3.36 |
| V22F | 3.99 |
| V22C | 3.58 |
| V22W | 4.26 |
| V22I | 1.83 |
| V22S | 2.57 |
| V22Q | 2.7 |
| V2R | 3.31 |
| V2L | 2.63 |
| V2W | 1.31 |
| V2S | 2.18 |
| V2I | 1.66 |
| V2A | 2.61 |
| V2G | 1.72 |
| V2N | 2.97 |
| V2E | 2.41 |
| V2Q | 3.03 |

| Variant | protein stability index |
| --- | --- |
| K20R | 4.17 |
| K20P | 2.58 |
| K20W | 2.77 |
| K20G | 3.57 |
| K20T | 3.84 |
| A6W | 3.42 |
| A6K | 2.74 |
| A6V | 3.12 |
| A6P | 2.32 |
| A6H | 2.32 |
| A6M | 3.4 |
| A6E | 2.6 |
| L7K | 3.13 |
| L7M | 2.91 |
| L7A | 3.97 |
| L7G | 3.96 |
| L7E | 2.39 |
| L7T | 2.52 |
| L7Q | 2.07 |
| L7N | 2.38 |
| L7F | 2.47 |
| S15I | 1.84 |
| S15V | 4.48 |
| S15T | 2.56 |
| S15G | 2.29 |

| Variant | protein stability index |
| --- | --- |
| S15M | 1.21 |
| S15Q | 2.82 |
| S15C | 2.23 |
| A12H | 3.12 |
| A12L | 3.9 |
| A12Q | 2.67 |
| A12W | 3.1 |
| A12Y | 2.39 |
| L23V | 2.5 |
| L23I | 3.31 |
| L23S | 1.66 |
| L23R | 2.55 |
| L23E | 2.65 |
| L23K | 2.66 |
| L23H | 3.01 |
| I18N | 3.51 |
| I18W | 4.75 |
| I18G | 2.69 |
| I18P | 3.69 |
| I18T | 1.35 |
| I18V | 4.01 |
| I18E | 3.04 |
| S21A | 1.89 |
| S21T | 3.04 |
| S21Q | 2.56 |

| Variant | protein stability index |
| --- | --- |
| S21I | 2.91 |
| S21H | 1.9 |
| S21R | 1.99 |
| S21N | 1.52 |
| S21K | 1.45 |
| S21W | 2.52 |
| S21E | 2.38 |
| S21M | 2.42 |
| Y19E | 4.55 |
| Y19F | 1.46 |
| Y19S | 2.1 |
| Y19R | 3.4 |
| Y4R | 3 |
| Y4M | 2.6 |
| Y4I | 4.11 |
| Y4W | 1.9 |
| Y4P | 1.75 |
| Y4N | 3.01 |
| Y4K | 2.3 |
| Y4T | 4.26 |
| Y4F | 2.5 |
| Y4L | 2.37 |
| Y4D | 2.35 |
| I14A | 2.8 |
| I14T | 2.12 |

| Variant | protein stability index |
| --- | --- |
| I14G | 2.49 |
| I14M | 3.4 |
| I14H | 2.72 |
| I14K | 1.96 |
| L5Y | 1.83 |
| L5F | 3.22 |
| L5N | 2.34 |
| L5W | 3.59 |
| L5A | 2.47 |
| L5V | 1.63 |
| A9C | 2.86 |
| A9M | 1.46 |
| A9L | 2.44 |
| A9I | 2.31 |
| A3G | 1.88 |
| A3V | 2.16 |
| A3L | 2.06 |
| A3M | 2.6 |
| A3R | 2.69 |
| A3H | 2.2 |
| A3P | 2.66 |
| A3W | 2.72 |
| F16Q | 3 |
| F16L | 2.57 |
| F16S | 2.99 |

| Variant | protein stability index |
| --- | --- |
| F16A | 2.88 |
| F16H | 3.82 |
| F16N | 2.28 |
| F16V | 2.15 |
| F16K | 1.86 |
| F16D | 2.94 |
| F16P | 4.4 |
| R17N | 4.14 |
| R17P | 2.35 |
| R17I | 2.21 |
| R17M | 2.83 |
| V1A | 3.01 |
| V1W | 1.72 |
| V1G | 1.96 |
| V1F | 2.66 |
| V1E | 3.26 |
| V1T | 2.62 |
| V1R | 2.44 |
| V1I | 2.75 |
| A8E | 2.46 |
| A8H | 1.75 |
| A8I | 3.23 |
| A8T | 2.32 |

Variants of: B2
Experiment: as above
Conditions: c terminus: a fixed tail appended

| Variant | protein stability index |
| --- | --- |
| I21C | 2.63 |
| I21W | 1.88 |
| I21H | 2.51 |
| I21Q | 3.05 |
| I21R | 3.23 |
| I21N | 4.12 |
| I21L | 2.65 |
| I21E | 3.96 |
| I21S | 3.37 |
| I21V | 3.22 |
| I21G | 3.64 |
| I21P | 2.8 |
| I21K | 3.79 |
| I21M | 3.15 |
| I21D | 3.96 |
| I21F | 2.25 |
| I21Y | 2.11 |
| I21T | 3.07 |
| I21A | 2.49 |
| L23K | 4.12 |
| L23Y | 3.2 |
| L23S | 4.11 |
| L23G | 3.51 |

| Variant | protein stability index |
| --- | --- |
| L23F | 2.29 |
| L23C | 2.79 |
| L23I | 2.51 |
| L23R | 3.76 |
| L23V | 2.83 |
| L23A | 3.78 |
| L23N | 4.14 |
| L23P | 3.74 |
| L23E | 4.4 |
| L23H | 4.27 |
| L23W | 2.55 |
| L23D | 4.69 |
| L23Q | 4.46 |
| L23T | 3.74 |
| L23M | 3.25 |
| V20A | 2.45 |
| V20M | 2.5 |
| V20R | 2.63 |
| V20G | 2.77 |
| V20C | 2.08 |
| V20D | 3.22 |
| V20Y | 2.07 |
| V20E | 3.42 |

| Variant | protein stability index |
| --- | --- |
| V20P | 2.79 |
| V20N | 2.77 |
| V20L | 2.57 |
| V20S | 2.43 |
| V20Q | 2.96 |
| V20W | 1.54 |
| V20T | 2.51 |
| V20F | 1.56 |
| V20K | 2.78 |
| V20I | 2.25 |
| V20H | 2.72 |
| D22K | 2.11 |
| D22E | 2.46 |
| D22M | 2.81 |
| D22F | 2.93 |
| D22Y | 2.04 |
| D22Q | 2.26 |
| D22N | 2.24 |
| D22P | 2.68 |
| D22T | 1.73 |
| D22L | 2.57 |
| D22S | 1.76 |
| D22A | 2.03 |

| Variant | protein stability index |
| --- | --- |
| D22H | 1.94 |
| D22R | 1.87 |
| D22G | 1.75 |
| D22V | 1.75 |
| D16K | 2.17 |
| D16T | 2.54 |
| D16I | 1.99 |
| D16P | 2.19 |
| D16M | 1.92 |
| D16S | 1.91 |
| D16W | 1.46 |
| D16Y | 1.53 |
| D16Q | 1.9 |
| D16N | 2.53 |
| D16R | 2.03 |
| D16L | 2.6 |
| D16V | 2.3 |
| S18P | 2.83 |
| S18D | 2.97 |
| S18N | 2.43 |
| S18A | 2.29 |
| S18H | 2.12 |
| S18Y | 1.66 |

| Variant | protein stability index |
| --- | --- |
| S18M | 2.06 |
| S18C | 2.1 |
| S18G | 2.56 |
| S18V | 2.1 |
| S18F | 1.67 |
| S18K | 2.46 |
| S18R | 2.11 |
| S18Q | 2.49 |
| S18W | 1.37 |
| S18T | 2.49 |
| S18E | 2.72 |
| S18I | 1.9 |
| S18L | 2.23 |
| F24E | 4.51 |
| F24A | 4.03 |
| F24D | 4.54 |
| F24R | 3.56 |
| F24N | 4.1 |
| F24Q | 3.85 |
| F24K | 4.2 |
| F24I | 3.34 |
| F24V | 3.99 |
| F24P | 4.31 |

| Variant | protein stability index |
| --- | --- |
| F24S | 3.77 |
| F24M | 3.72 |
| F24T | 3.75 |
| F24Y | 2.88 |
| F24G | 4.35 |
| F24W | 1.22 |
| F24H | 4.52 |
| F24L | 3.13 |
| G19L | 2.24 |
| G19H | 2.4 |
| G19I | 1.41 |
| G19F | 1.26 |
| G19V | 2.07 |
| G19A | 2.56 |
| G19P | 2.06 |
| G19R | 2.44 |
| G19K | 2.38 |
| G19Q | 2.69 |
| G19T | 2.57 |
| G19M | 1.92 |
| G19D | 2.94 |
| G19N | 2.59 |
| G19Y | 1.58 |

| Variant | protein stability index |
| --- | --- |
| G19S | 2.58 |
| G19C | 1.83 |
| G19E | 2.84 |
| G19W | 1.55 |
| S17N | 2.78 |
| S17V | 2.17 |
| S17R | 2.27 |
| S17I | 1.7 |
| S17Q | 2.52 |
| S17H | 2.71 |
| S17K | 2.29 |
| S17W | 1.63 |
| S17C | 1.86 |
| S17E | 2.45 |
| S17L | 1.96 |
| S17F | 2.21 |
| S17T | 2.43 |
| S17G | 2.33 |
| S17A | 2.55 |
| S17D | 2.55 |
| S17P | 2.39 |
| S17Y | 2.7 |
| S17M | 2.16 |
